Laboratory results published in PMC7332966.

What was measured:
FANCI (I);FANCD2 (D2) = FANCI (I);FANCD2 (D2) (Homo sapiens;Homo sapiens, UniProt Q9NVI1;Q9BXW9 1-1328;1-1451, |); assay: PIFE; 150 mM NaCl; Kd only in bar graph; EMSA: 16 mM Tris-HCl pH 8, 150 mM NaCl, 4.4% glycerol, 0.07 mg/ml BSA, 7 mM DTT, 4 mM EDTA, 2 nM DNA, on ice 20 min, 4% PAGE in 0.5x TBE (4 C). PIFE: 150 mM NaCl, 125 nM DNA, 22 C.; details: protein: recombinant;recombinant; tags: His6-TEV-V5 (N-term); His6-3C, cleaved in some cases; copies: 1;1; label: 5' IRDye700 on both strands; blunt
Sequence of FANCI (I);FANCD2 (D2) (Q9NVI1 whole entry, chain 1 of 2): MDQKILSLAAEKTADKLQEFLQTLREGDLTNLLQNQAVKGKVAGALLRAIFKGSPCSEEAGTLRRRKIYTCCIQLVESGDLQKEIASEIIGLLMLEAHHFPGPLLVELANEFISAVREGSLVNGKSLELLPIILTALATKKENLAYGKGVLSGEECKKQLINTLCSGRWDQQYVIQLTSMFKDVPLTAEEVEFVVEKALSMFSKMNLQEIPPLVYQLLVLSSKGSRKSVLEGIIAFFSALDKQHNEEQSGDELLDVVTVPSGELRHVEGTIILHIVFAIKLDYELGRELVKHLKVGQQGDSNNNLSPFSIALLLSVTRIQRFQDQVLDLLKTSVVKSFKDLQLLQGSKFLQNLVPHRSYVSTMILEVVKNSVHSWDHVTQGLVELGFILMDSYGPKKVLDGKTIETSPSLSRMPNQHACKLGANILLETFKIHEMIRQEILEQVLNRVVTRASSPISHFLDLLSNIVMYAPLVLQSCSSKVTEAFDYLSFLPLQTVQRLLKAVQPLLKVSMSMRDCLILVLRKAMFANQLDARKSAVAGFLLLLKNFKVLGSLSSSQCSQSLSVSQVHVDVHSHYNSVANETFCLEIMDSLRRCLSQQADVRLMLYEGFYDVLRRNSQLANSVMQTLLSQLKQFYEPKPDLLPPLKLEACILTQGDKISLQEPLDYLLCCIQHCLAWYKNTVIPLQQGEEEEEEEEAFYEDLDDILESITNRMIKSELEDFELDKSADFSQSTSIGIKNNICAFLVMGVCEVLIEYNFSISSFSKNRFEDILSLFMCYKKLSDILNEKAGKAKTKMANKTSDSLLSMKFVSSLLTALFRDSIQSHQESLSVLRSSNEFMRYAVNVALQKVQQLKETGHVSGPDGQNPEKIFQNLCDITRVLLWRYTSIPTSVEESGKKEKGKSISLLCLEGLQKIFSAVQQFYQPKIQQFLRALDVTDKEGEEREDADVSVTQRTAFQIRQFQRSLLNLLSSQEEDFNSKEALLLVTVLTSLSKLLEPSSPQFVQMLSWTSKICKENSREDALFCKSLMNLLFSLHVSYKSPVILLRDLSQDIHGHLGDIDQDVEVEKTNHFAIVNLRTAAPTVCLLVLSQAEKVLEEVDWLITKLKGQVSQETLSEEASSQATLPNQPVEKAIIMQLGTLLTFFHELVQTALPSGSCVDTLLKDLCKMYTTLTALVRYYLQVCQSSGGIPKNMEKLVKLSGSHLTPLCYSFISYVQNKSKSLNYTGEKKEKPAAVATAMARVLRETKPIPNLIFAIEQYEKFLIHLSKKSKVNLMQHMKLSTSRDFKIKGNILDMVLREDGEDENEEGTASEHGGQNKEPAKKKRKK
Sequence of FANCI (I);FANCD2 (D2) (Q9BXW9 whole entry, chain 2 of 2): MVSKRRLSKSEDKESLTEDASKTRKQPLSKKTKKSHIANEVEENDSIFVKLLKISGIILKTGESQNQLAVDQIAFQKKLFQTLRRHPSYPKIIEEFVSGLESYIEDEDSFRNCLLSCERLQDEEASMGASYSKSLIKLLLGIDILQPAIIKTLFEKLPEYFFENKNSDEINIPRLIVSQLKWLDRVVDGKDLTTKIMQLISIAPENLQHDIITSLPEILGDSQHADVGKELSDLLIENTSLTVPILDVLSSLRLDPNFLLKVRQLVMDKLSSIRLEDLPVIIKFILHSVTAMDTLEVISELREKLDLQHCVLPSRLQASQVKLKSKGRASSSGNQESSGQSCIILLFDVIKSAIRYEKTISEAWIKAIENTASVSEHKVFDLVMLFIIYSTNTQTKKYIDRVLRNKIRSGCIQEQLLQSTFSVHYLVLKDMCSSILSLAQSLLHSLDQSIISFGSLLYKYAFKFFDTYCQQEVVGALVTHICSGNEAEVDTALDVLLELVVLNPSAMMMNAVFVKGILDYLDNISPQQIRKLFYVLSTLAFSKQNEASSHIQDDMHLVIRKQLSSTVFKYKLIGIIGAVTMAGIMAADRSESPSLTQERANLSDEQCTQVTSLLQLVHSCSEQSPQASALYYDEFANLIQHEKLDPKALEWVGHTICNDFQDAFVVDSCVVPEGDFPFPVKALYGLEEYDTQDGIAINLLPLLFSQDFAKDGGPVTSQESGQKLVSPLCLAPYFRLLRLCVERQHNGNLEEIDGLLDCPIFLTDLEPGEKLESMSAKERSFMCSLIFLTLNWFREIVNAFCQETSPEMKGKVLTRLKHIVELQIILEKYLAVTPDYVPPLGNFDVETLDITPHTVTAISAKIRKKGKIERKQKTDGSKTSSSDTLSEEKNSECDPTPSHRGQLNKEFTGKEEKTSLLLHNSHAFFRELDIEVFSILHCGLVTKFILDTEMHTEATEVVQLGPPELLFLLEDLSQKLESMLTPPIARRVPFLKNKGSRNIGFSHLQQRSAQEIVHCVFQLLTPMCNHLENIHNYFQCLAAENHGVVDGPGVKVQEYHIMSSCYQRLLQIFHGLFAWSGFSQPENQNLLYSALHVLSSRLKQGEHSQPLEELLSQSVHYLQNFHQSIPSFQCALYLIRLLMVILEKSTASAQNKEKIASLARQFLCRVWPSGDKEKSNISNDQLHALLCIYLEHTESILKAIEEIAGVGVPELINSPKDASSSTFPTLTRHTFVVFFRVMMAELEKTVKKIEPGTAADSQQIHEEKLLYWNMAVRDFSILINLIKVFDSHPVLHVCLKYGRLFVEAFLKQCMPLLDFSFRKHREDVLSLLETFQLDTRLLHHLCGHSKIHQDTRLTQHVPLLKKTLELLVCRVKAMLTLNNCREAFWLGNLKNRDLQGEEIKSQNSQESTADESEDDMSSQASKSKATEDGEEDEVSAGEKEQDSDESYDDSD

FANCI R1285Q;FANCD2 (D2) = FANCI R1285Q;FANCD2 (D2) (Homo sapiens;Homo sapiens, UniProt Q9NVI1;Q9BXW9 1-1328;1-1451, R1285Q|); assay: PIFE; minor, insignificant reduction vs WT I+D2; Kd only in bar graph; EMSA: 16 mM Tris-HCl pH 8, 150 mM NaCl, 4.4% glycerol, 0.07 mg/ml BSA, 7 mM DTT, 4 mM EDTA, 2 nM DNA, on ice 20 min, 4% PAGE in 0.5x TBE (4 C). PIFE: 150 mM NaCl, 125 nM DNA, 22 C.; details: protein: recombinant;recombinant; tags: His6 (N-term);FLAG (EMSA); His6-3C, cleaved in some cases; copies: 1;1; label: 5' IRDye700 on both strands; blunt
Sequence of FANCI R1285Q;FANCD2 (D2) (Q9NVI1 whole entry R1285Q, chain 1 of 2): as the sequence (Q9NVI1 whole entry, chain 1 of 2) above, with R1285Q counted along it
Sequence of FANCI R1285Q;FANCD2 (D2) (Q9BXW9 whole entry, chain 2 of 2): as the sequence (Q9BXW9 whole entry, chain 2 of 2) above

B1: ds32F (dsDNA)
DNA 1: CGATCGGTAACGTATGCTGAATCTGGTGCTGG
DNA 2: CCAGCACCAGATTCAGCATACGTTACCGATCG
Question: What does the source list for B1?
Answer: binding result (FANCI (I);FANCD2 (D2)): binds; binding result (FANCI R1285Q;FANCD2 (D2)): binds
